Measured values reported in the supplement of paper PMC10567573.

B1: CCND2 (parent)
chain: YFKCVQKDIQPYMRRMVATWMLEV
B2: STX5 (parent)
chain: ESTIVELGSIFQQLAHMVKEQEET

Variants of: B1
Test: protein stability index of a GFP-peptide fusion (GPS, HEK-293T) (PSI 1-6); higher = more stable
Conditions: c terminus: a fixed tail appended
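Also: lentivirally expressed fusions sorted by FACS into six bins by GFP to DsRed ratio, PSI derived from sequencing read proportions per bin multiplied by bin number.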

Protein stability index, by site and new letter:
Q6: I 1.91, N 1.9, T 2.38, L 2.53, V 1.79, D 2.65, P 2.49, C 3.44, S 2.37, E 3.62, G 2.47, Y 2.64
W20: T 2.18, D 1.63, A 2.36, G 1.95, H 2.88, R 2.17, F 2.34, I 2.57, P 2.58, E 3.61, V 3.41, C 3.44, N 1.24, K 1.84, L 4.58, Q 2.61
V5: L 2.71, N 2.54, K 2.25, D 2.41, T 3.62, S 1.43, P 3.14, Y 4, C 2.36
R14: S 3.39, Y 3.2, K 1.44, Q 1.73, G 2.28, N 2.06, V 2.55, L 4.22, E 2.24
V24: Q 2.5, F 3.08, G 2.9, A 2.41, R 2.65, H 1.94, D 1.56, K 1.63, L 2.68
A18: E 3.2, C 1.44, Y 4.28, K 2.69, H 2.17, R 4.17, D 2.37, N 3.36, Q 3.45, L 3.85
Q10: I 3.17, L 2.64, N 3.3, F 1.99, K 3.06, E 2.32, W 3.11, D 2.77, M 2.06, H 2.84, R 2.02, Y 3.78
K7: N 2.66, V 3.05, E 4.8, M 2.53, Y 2.54, S 3.21, T 3.22, R 2.69, G 2.97, D 1.91, Q 2.1, P 2.48
M13: D 2.8, I 3.3, V 1.66, H 2.92, C 2.43, R 2.42, T 2.96, E 2.88, K 3.64
L22: Y 2, D 1.89, S 2.72, F 4.78, P 1.63, G 2.07, W 2.6, V 2.94, Q 1.96, E 1.74, H 1.59, C 2.25, A 3.01, K 2.34, R 1.96
K3: E 3.31, W 2.44, I 2.78, S 3.75, Q 2.12, V 3.12, N 2.9, P 2.33, T 3.31, H 3.13, G 1.86
R15: F 4.08, H 2.75, N 3.95, C 3.12, K 2.36, G 2.35, D 3.42, I 2.75, P 3.69, Y 2.81, W 3.97, V 3.01, E 3.42, A 1.77, S 2.55
Y12: V 3.11, K 3.07, L 3.19, A 3.33, C 2.89, I 2.54, W 2.43, N 2.38, R 4.86, T 2.66, H 2.54, S 2.83
Y1: M 2.11, Q 3.55, H 3.71, A 3.09, L 2.14, E 1.88, F 2.3, K 3.54, C 1.94, R 1.87, N 2.23, D 2.58
F2: A 2.97, V 2.15, R 2.33, W 2.75, S 3.5, Y 2.68, M 1.89, K 2.95, L 2.85, G 3.84
M21: F 1.96, L 1.76, G 2.52, W 4.25, V 2.55, D 2.43, A 1.67, N 2.54, E 2.72, Q 1.76, K 3.19, R 1.86, I 2.58
M16: Y 2.41, D 2.09, A 3.12, Q 2.91, H 2.35, P 3.25, V 2.3, E 2.45, L 3.06, F 3.28, I 3.33, T 3.51
T19: G 2.5, E 1.44, W 2.88, P 1.41, F 2.85, N 3.9, Q 1.75, R 1.58, V 2.61, H 3.25, K 3
I9: E 3.71, K 1.52, T 3.39, C 2.51, L 3.16, P 3.18, D 2.71, V 1.06, M 3.79, H 2.78, Q 2.61, Y 3.57, R 1.77, F 2.47
V17: H 3.14, R 3.03, P 2.44, W 4.01, A 1.55, C 3.2, L 2.28, T 3.15, N 2.15, I 2.65, Q 2.63, D 3.18, F 2.44, S 1.77
P11: C 2.36, S 2.5, M 3.69, I 2.9, W 3.21, N 2.54, V 2.82, F 3.77
D8: E 2.37, H 2.21, N 2.16, P 3.13, L 2.05, I 2.58, K 2.94
E23: C 2.61, M 2.9, L 3.11, A 1.78, T 2.88, G 3.51, P 3.09, W 3.1, F 2.5
C4: W 3.23, V 3.69, Y 3.12, T 1.74, A 2.47, E 1.28, P 2.44, M 2.81, G 2.21, R 2.25, H 2.37

Variants of: B2
Test: as above
Conditions: c terminus: a fixed tail appended

Protein stability index of substitutions, site by site:
S2: E 2.62, F 2.93, K 2.24, C 3.01, D 2.47, Y 1.7, W 2.19, M 1, A 1.39, L 2.28, P 1.7, I 1.86, Q 1.97, H 1.92, T 2.05, N 1.97, V 3.07, R 1.25, G 1.78
I4: A 2.27, E 2.8, G 2.42, D 2.78, F 2.29, C 2.83
T3: S 2.72, H 2.4, A 2.96, I 2.94, P 3.03, M 1.44, E 1.43, Y 2.05, V 2.56, F 1.3, W 1.24, L 1.85, D 2.04, R 3.19, Q 3.88, K 2.83, N 2.31, C 2.02
E1: G 2.69, Y 2.49, N 2.22, M 2.45, F 2.08, A 2.13, W 1.61, L 2.6, T 2.26, Q 1.68, D 2.77, R 2.27, V 1.79, S 1.9, I 3.04, K 1.87, H 1.27, P 2.71, C 2.31
